Measurements reported in article PMC3325491 (Structure(London, England:1993), 2012).

Assays:
[1] = target: HPV16 E6N domain (residues 1-80), wild type (HPV16); assay: NMR titration
[2] = target: the molecule itself; assay: SEC
[3] = target: the molecule itself; assay: AUC

HPV16 E6N domain (residues 1-80), wild type (domain or fragment)
Kd [1]: 290 µM

B1: HPV11 MBP-E6N fusion construct (E6N residues 1-81) (domain or fragment)
chain: MESKDASTSATSIDQLCKTFNLSLHTLQIQCVFCRNALTTAEIYAYAYKNLKVVWRDNFPFAACACCLELQGKINQYRHFN
stoichiometry N [2]: 2

B2: HPV18 E6N domain (residues 1-82) (domain or fragment)
chain: MARFEDPTRRPYKLPDLCTELNTSLQDIEITCVYCKTVLELTEVFEFAFKDLFVVYRDSIPHAACHKCIDFYSRIRELRHYS
stoichiometry N [3]: 2
